The values below come from article doi:10.1101/2025.03.07.642005 (bioRxiv, 2025).

For assay [1], the target named is T1, GatB, subunit B of the aminoacyl-tRNA amidotransferase complex GatCAB (Arabidopsis, UniProt Q9FV81 60-550).
T1 sequence: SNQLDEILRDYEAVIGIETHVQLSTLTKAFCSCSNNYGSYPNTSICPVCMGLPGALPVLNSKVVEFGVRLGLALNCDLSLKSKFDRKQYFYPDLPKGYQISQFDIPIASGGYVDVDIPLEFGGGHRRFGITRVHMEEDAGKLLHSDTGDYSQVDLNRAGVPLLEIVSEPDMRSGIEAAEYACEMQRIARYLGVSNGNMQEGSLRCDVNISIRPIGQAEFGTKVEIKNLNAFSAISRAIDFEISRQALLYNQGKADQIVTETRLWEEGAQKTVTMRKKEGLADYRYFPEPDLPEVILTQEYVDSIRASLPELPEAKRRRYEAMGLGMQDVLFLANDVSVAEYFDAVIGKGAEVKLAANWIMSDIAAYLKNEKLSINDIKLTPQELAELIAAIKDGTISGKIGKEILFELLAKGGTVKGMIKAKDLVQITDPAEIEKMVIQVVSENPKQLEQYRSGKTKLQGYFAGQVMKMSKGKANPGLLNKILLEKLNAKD
Briefly: SEC.

The target in assay [2] is T2, GatA, subunit A of the aminoacyl-tRNA amidotransferase complex GatCAB (Arabidopsis, UniProt Q9LI77 45-537).
T2 sequence: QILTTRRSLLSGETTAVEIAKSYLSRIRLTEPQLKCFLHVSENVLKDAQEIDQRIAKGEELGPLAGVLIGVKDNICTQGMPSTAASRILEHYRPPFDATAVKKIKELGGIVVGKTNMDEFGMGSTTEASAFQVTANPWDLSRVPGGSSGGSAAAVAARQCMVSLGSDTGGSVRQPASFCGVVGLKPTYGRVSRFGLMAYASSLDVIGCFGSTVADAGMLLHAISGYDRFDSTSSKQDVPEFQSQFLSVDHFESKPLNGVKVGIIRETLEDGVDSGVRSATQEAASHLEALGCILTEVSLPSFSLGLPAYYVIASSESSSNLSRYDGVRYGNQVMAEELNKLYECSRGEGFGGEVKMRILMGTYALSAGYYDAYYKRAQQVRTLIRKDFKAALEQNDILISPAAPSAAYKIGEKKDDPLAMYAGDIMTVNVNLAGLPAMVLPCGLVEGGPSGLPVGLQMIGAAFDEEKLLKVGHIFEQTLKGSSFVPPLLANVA
The assay is described as follows: SEC. In general terms: SEC sorts molecules by how far they enter the pores of the column.

B1: GatC, subunit C of the aminoacyl-tRNA amidotransferase complex GatCAB (natural protein)
chain: RSYSSDSDSSVLQPPDVARLAQTARISLTPAEIEECETKIRRVIDWFGQLQQVDVNSVEPAIRAEMDGGNLREDAPETFDNRDSIRASIPSFEDAYLKVPKILNKE
Regarding B1, the binding result in assay [1] and in assay [2] was “binds” each time.
